Measured values: patent US20140213531A1 (POLYPHOR, published 2014)
Bridges are numbered along the chain shown (N, C = ends). [ ]: non-standard residue; d: D form. Pro(5R-Ph) = O=C(O)[C@@H]1CC[C@H](c2ccccc2)N1

Columns and labels:
Assay in all cases: cell-based or functional assay
Chymase, from human skin = target: T1, Chymase, from human skin (human, UniProt P23946 22-247)
T1 sequence (looked up): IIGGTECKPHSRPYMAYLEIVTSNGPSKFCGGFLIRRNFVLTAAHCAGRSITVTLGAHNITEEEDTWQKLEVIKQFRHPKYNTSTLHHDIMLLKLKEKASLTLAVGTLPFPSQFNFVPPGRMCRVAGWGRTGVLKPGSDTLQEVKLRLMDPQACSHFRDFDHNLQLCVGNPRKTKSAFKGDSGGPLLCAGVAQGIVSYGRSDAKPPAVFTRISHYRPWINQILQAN

[1] = target: T2, CathepsinG, from human neutrophils (human, UniProt P08311 21-244)
T2 sequence (looked up): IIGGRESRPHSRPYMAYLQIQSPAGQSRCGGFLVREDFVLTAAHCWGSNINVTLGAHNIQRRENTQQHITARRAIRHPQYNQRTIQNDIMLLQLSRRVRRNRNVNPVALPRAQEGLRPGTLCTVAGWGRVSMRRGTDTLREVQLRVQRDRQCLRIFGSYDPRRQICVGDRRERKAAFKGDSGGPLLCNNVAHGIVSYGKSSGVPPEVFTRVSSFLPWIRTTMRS

[2] = target: T3, Elastase from human neutrophils (human, UniProt P08246 30-247, limits assumed)
T3 sequence (looked up): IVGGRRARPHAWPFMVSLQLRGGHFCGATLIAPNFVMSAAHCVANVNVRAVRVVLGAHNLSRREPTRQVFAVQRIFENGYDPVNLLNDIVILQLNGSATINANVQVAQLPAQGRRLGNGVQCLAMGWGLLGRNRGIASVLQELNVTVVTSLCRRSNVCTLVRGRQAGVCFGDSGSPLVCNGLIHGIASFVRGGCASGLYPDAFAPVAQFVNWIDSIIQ

[3] = target: Trypsin, Iodination grade, from human pancreas (human, UniProt P07477 24-247)
[4] = target: Chymotrypsin, from human pancreas (human, UniProt P17538 19-263)
Chymotrypsin, from human pancreas, sequence (P17538 19-263): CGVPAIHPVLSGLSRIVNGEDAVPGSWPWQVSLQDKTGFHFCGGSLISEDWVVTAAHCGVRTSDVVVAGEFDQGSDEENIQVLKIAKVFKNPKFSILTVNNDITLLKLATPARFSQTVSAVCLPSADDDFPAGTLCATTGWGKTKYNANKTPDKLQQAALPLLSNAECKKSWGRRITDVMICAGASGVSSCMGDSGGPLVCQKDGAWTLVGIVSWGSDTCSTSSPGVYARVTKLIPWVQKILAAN

[5] = target: Urokinase from human urine (human, UniProt P00749 21-431, limits assumed)

Binder	% inhibition at 100 µM (Chymase, from human skin) [%]	IC50 [1] [nmol]	% inhibition at 100 µM [2] [%]	% inhibition at 100 µM [3] [%]	% inhibition at 100 µM [4] [%]	% inhibition at 100 µM [5] [%]	IC50 [2] [nmol]
XCTKSDPPICS (HELM PEPTIDE1{[O=C([C@@H](N[*:1])C1CCCCC1)[*:2]].C.T.K.S.D.P.P.I.C.S.[dP].P}$PEPTIDE1,PEPTIDE1,2:R3-10:R3|PEPTIDE1,PEPTIDE1,1:R1-13:R2$$$V2.0; SMILES CC[C@H](C)[C@@H]1NC(=O)[C@@H]2CCCN2C(=O)[C@@H]2CCCN2C(=O)[C@H](CC(=O)O)NC(=O)[C@H](CO)NC(=O)[C@H](CCCCN)NC(=O)[C@H]([C@@H](C)O)NC(=O)[C@@H]2CSSC[C@H](NC1=O)C(=O)N[C@@H](CO)C(=O)N1CCC[C@@H]1C(=O)N1CCC[C@H]1C(=O)N[C@@H](C1CCCCC1)C(=O)N2) [Example 11]	12.1	95	19	6.5	73.6		
RXTKSDPPIXF (HELM PEPTIDE1{R.[Nle].T.K.S.D.P.P.I.[Nle].F.[dP].P}$PEPTIDE1,PEPTIDE1,1:R1-13:R2$$$V2.0; SMILES CCCC[C@@H]1NC(=O)[C@H](CCCNC(=N)N)NC(=O)[C@@H]2CCCN2C(=O)[C@H]2CCCN2C(=O)[C@H](Cc2ccccc2)NC(=O)[C@H](CCCC)NC(=O)[C@H]([C@@H](C)CC)NC(=O)[C@@H]2CCCN2C(=O)[C@@H]2CCCN2C(=O)[C@H](CC(=O)O)NC(=O)[C@H](CO)NC(=O)[C@H](CCCCN)NC(=O)[C@H]([C@@H](C)O)NC1=O) [Example 8]	71.7	126	0.8	74.2	5.6		
FCTKSDPPXCS (HELM PEPTIDE1{F.C.T.K.S.D.P.P.[Cha].C.S.[dP].P}$PEPTIDE1,PEPTIDE1,2:R3-10:R3|PEPTIDE1,PEPTIDE1,1:R1-13:R2$$$V2.0; SMILES C[C@@H](O)[C@@H]1NC(=O)[C@@H]2CSSC[C@H](NC(=O)[C@H](CC3CCCCC3)NC(=O)[C@@H]3CCCN3C(=O)[C@@H]3CCCN3C(=O)[C@H](CC(=O)O)NC(=O)[C@H](CO)NC(=O)[C@H](CCCCN)NC1=O)C(=O)N[C@@H](CO)C(=O)N1CCC[C@@H]1C(=O)N1CCC[C@H]1C(=O)N[C@@H](Cc1ccccc1)C(=O)N2) [Example 54]	12.9	66		90		3.2	> 100000
FCTKSDPPICS (HELM PEPTIDE1{F.C.T.K.S.D.P.P.I.C.S.[dI].P}$PEPTIDE1,PEPTIDE1,2:R3-10:R3|PEPTIDE1,PEPTIDE1,1:R1-13:R2$$$V2.0; SMILES CC[C@@H](C)[C@H]1NC(=O)[C@H](CO)NC(=O)[C@@H]2CSSC[C@H](NC(=O)[C@H](Cc3ccccc3)NC(=O)[C@@H]3CCCN3C1=O)C(=O)N[C@@H]([C@@H](C)O)C(=O)N[C@@H](CCCCN)C(=O)N[C@@H](CO)C(=O)N[C@@H](CC(=O)O)C(=O)N1CCC[C@H]1C(=O)N1CCC[C@H]1C(=O)N[C@@H]([C@@H](C)CC)C(=O)N2) [Example 50]		89		94	0		> 100000
FCTKSDPPICS (HELM PEPTIDE1{F.C.T.K.S.D.P.P.I.C.S.[dI].P}$PEPTIDE1,PEPTIDE1,2:R3-10:R3|PEPTIDE1,PEPTIDE1,1:R1-13:R2$$$V2.0; SMILES CC[C@@H](C)[C@H]1NC(=O)[C@H](CO)NC(=O)[C@@H]2CSSC[C@H](NC(=O)[C@H](Cc3ccccc3)NC(=O)[C@@H]3CCCN3C1=O)C(=O)N[C@@H]([C@@H](C)O)C(=O)N[C@@H](CCCCN)C(=O)N[C@@H](CO)C(=O)N[C@@H](CC(=O)O)C(=O)N1CCC[C@H]1C(=O)N1CCC[C@H]1C(=O)N[C@@H]([C@@H](C)CC)C(=O)N2) [Example 73]		89		94	0		> 100000
XCTKSDPPICR (HELM PEPTIDE1{[O=C([C@H](Cc1ccccc1Cl)N[*:1])[*:2]].C.T.K.S.D.P.P.I.C.R.[dP].P}$PEPTIDE1,PEPTIDE1,2:R3-10:R3|PEPTIDE1,PEPTIDE1,1:R1-13:R2$$$V2.0; SMILES CC[C@H](C)[C@@H]1NC(=O)[C@@H]2CCCN2C(=O)[C@@H]2CCCN2C(=O)[C@H](CC(=O)O)NC(=O)[C@H](CO)NC(=O)[C@H](CCCCN)NC(=O)[C@H]([C@@H](C)O)NC(=O)[C@@H]2CSSC[C@H](NC1=O)C(=O)N[C@@H](CCCNC(=N)N)C(=O)N1CCC[C@@H]1C(=O)N1CCC[C@H]1C(=O)N[C@@H](Cc1ccccc1Cl)C(=O)N2) [Example 13]	19.9	100	8.2	95			
FCTKSDPPXCS (HELM PEPTIDE1{F.C.T.K.S.D.P.P.[Nle].C.S.[dP].P}$PEPTIDE1,PEPTIDE1,2:R3-10:R3|PEPTIDE1,PEPTIDE1,1:R1-13:R2$$$V2.0; SMILES CCCC[C@@H]1NC(=O)[C@@H]2CCCN2C(=O)[C@@H]2CCCN2C(=O)[C@H](CC(=O)O)NC(=O)[C@H](CO)NC(=O)[C@H](CCCCN)NC(=O)[C@H]([C@@H](C)O)NC(=O)[C@@H]2CSSC[C@H](NC1=O)C(=O)N[C@@H](CO)C(=O)N1CCC[C@@H]1C(=O)N1CCC[C@H]1C(=O)N[C@@H](Cc1ccccc1)C(=O)N2) [Example 15]	12.7	56		95			> 100000
FCTKSDPPXCS (HELM PEPTIDE1{F.C.T.K.S.D.P.P.[Cha].C.S.[dP].P}$PEPTIDE1,PEPTIDE1,2:R3-10:R3|PEPTIDE1,PEPTIDE1,1:R1-13:R2$$$V2.0; SMILES C[C@@H](O)[C@@H]1NC(=O)[C@@H]2CSSC[C@H](NC(=O)[C@H](CC3CCCCC3)NC(=O)[C@@H]3CCCN3C(=O)[C@@H]3CCCN3C(=O)[C@H](CC(=O)O)NC(=O)[C@H](CO)NC(=O)[C@H](CCCCN)NC1=O)C(=O)N[C@@H](CO)C(=O)N1CCC[C@@H]1C(=O)N1CCC[C@H]1C(=O)N[C@@H](Cc1ccccc1)C(=O)N2) [Example 16]	12.9	66		90		3.2	> 100000
cyclo(FCTKSDPPICS[dP][Pro(5R-Ph)]) (disulfide 2-10) [Example 48]		83		93	3		> 100000
FCTKSEPPICS (HELM PEPTIDE1{F.C.T.K.S.E.P.P.I.C.S.[dP].P}$PEPTIDE1,PEPTIDE1,2:R3-10:R3|PEPTIDE1,PEPTIDE1,1:R1-13:R2$$$V2.0; SMILES CC[C@H](C)[C@@H]1NC(=O)[C@@H]2CCCN2C(=O)[C@@H]2CCCN2C(=O)[C@H](CCC(=O)O)NC(=O)[C@H](CO)NC(=O)[C@H](CCCCN)NC(=O)[C@H]([C@@H](C)O)NC(=O)[C@@H]2CSSC[C@H](NC1=O)C(=O)N[C@@H](CO)C(=O)N1CCC[C@@H]1C(=O)N1CCC[C@H]1C(=O)N[C@@H](Cc1ccccc1)C(=O)N2) [Example 21]	5	97		95.6	2.6		16.4
